Laboratory results reported in patent US20050079151A1, “Therapeutic agents for apoptosis-related diseases” (priority 1998, published 2005).

Assays:
[1] = tested on: renal uriniferous tubule cells; assay: Inhibitory effect on cisplatin-induced apoptosis in renal uriniferous tubule cells of MK knockout mice; format: in vivo, mouse
Method: Heterozygous 129/Sv knockout mice (male, 8- to 12-week old) in which parts of exons 2 and 3 of the MK gene were destroyed (Biochemistry 7, 1996, Volume 68, pp. 1239, 4-p-1244) were divided into two groups; the saline administration group and the MK administration groups (14 individuals each). As a control group, the untreated wild-type mice (four individuals) were prepared. Dosage of MK was 200 μg/kg and that of saline was 10 ml/kg.
MK or saline was intraperitoneally administered to the mice in two groups in the morning and cisplatin 9.3 mg/kg was intraperitoneally administered to the mice in two groups in the afternoon of the same day (this day is Day 0).
In the morning of Day 1, MK or saline was interperitoneally administered to each mouse in the same manner as on […].
On Day 2, four mice were selected from each group (the untreated wild-type mice group and the two treated groups) to collect urine and whole blood. Clots in the collected blood were retracted for 1 hour at 37° C., and centrifuged (4° C., 8000 rpm, 10 min) to separate the serum. […]
Blood urea nitrogen (BUN) and serum creatinine frequently used as indexes of renal dysfunction in day-to-day diagnosis were measured and proteins in urine were simply quantified. […]
On Day 4, DNA fragmentation in the kidney paraffin sections representating strong damage was analyzed by the TUNEL method (In situ Apoptosis Detection Kit; TaKaRa).

[2] = tested on: NG 108 cell lines; assay: Determination of DNA content in apoptosis-induced neurocytes (UV, PI staining, flow cytometry); format: cell-based, mouse; details: after UV exposure; for Ratio of cells at each cell cycle: G1: control group 7; for Ratio of cells at each cell cycle: G2/M: control group 9; for Ratio of cells at each cell cycle: S: control group 84
Method: The culture flasks were coated with MK 100 ng/ml or MK 10 μg/ml. The flasks without a MK-coating (control) were also prepared.
NG 108 cell lines, hybrid cells of mouse neuroblastoma C1300 and glioma (Nelson P. G. et al.: Brain Res., 147: 245, 1978), were cultured in a Falcon 3110 cell culture flask (75 cm^2, BECTON DICKINSON) containing 10% FBS/DMEM until the cells were almost confluent. After culturing, the cells were exposed to ultraviolet light for […] (UV radiation amount: 60-100 J/m^2) to induce apoptosis.
The cells were collected by centrifugation (4° C., 1000 rpm, 10 min), and washed with 10 to 12 ml of sample buffer [1 g glucose/1 L PBS (−); filtered through a 0.22 μm filter] twice. The cells were adjusted to 1×10^6 to 3×10^6 cells/ml with the sample buffer, and 1 ml of them was centrifuged (4° C., 1000 rpm, 10 min) in a centrifuge tube (FALCON; 15×75 mm). The supernatant was discarded and the pellet was vigorously vortexed for 10 sec. Ethanol (70%) cooled with ice (1 ml) was added dropwise thereto and fixed at 4° C. overnight.
The cells fixed overnight were briefly vortexed and centrifuged (3000 rpm, 5 min). 70% Ethanol in the supernatant was discarded to 0.2 ml or less. The centrifuge tubes containing the cells were slowly vortexed, and 1 ml of propidium iodide (PI) stain was added thereto. The PI stain contained 0.5 ml of 20×PI solution, 0.1 ml of 100×RNase A solution, and 10 ml of the sample buffer. Twenty-fold dilution of PI was obtained by preparing 1 mg/ml of PI solution (SIGMA), filtering it through a 0.22 μm filter, and storing it at 4° C. in the dark. RNase A solution (100×) was prepared by adjusting RIBONUCLEASE A (Type I-A) (SIGMA) (10000 U/ml) to 125 mg/ml (80 U/mg).
The cells were lightly shaken, incubated for 30 min or longer at room temperature, and measured by flow cytometry.

[3] = tested on: Bcl-2; assay: Effect for enhancing Bcl-2 expression (Western blotting); format: cell-based; details: G401 cells
Method: The effect of MK on the expression of the Bcl-2 gene was examined. Six groups were prepared; the untreated group, the cisplatin (100 μM) treated group, the human MK (100 ng/ml) treated group, the human MK (100 ng/ml)+cisplatin (100 μM) group, the mouse MK (100 ng/ml) treated group, and the mouse MK (100 ng/ml)+cisplatin (100 μM) treated group.
G401 cells were seeded on a 3.5 cm-dish and cultured in 10% FBS/DMEM until the cells became almost confluent. The cells were washed twice and cultured in 0.1% FBS/DMEM overnight. Then, human MK or mouse MK (JP-A No. Hei 8-196293) was added to the MK treatment groups at 100 ng/ml and cultured for six hours. Cisplatin was added to the cisplatin treatment group to 100 μM, and cultured for 2 hours. After culturing, the cells were washed with 0.1% FBS/DMEM three times, cultured in 0.1% FBS/DMEM for 10 hours, and washed with PBS three times.
Two hundred microliters of buffer [1% Triton X-100, 150 mM NaCl, 10 mM Tris (pH 7.4), 1.0 mM EGTA, 0.5% NP-40, 1 mM PMSF, 0.1 μg/ml apiotinin, 40 nM Iewpeptin] were added to each dish and kept on ice for 20 min. The cells in each dish were detached by a scraper, and mixed 8 to 10 times using a syringe with a 26-gauge needle. The cells of each dish were centrifuged in a centrifuge tube at 4° C. at 12000 rpm for 30 min. The precipitated proteins were quantified (BCA Kit; PIERCE). The precipitate prepared from each dish (50 μg) was analyzed by Western blotting using anti-Bcl-2 monoclonal antibody (500×) (Dako; Denmark) and anti-mouse HRP antibody (Jackson Immuno Research) (FIG. 6). The band in each lane is numerically shown (FIG. 7).

B1: MK: midkine, a heparin-binding growth and differentiation factor; human MK protein (SEQ ID NO: 3; or recombinant, secreted by yeast) (protein, UniProt P21741 21-143, looked up)
Midkine: VAKKKDKVKKGGPGSECAEWAWGPCTPSSKDCGVGFREGTCGAQTQRIRCRVPCNWKKEFGADCKYKFENWGACDGGTGTKVRQGTLKKARYNAQCQETIRVTKPCTPKTKAKAKAKKGKGKD
number of TUNEL positive cells in kidney paraffin sections ([1]; Day 4, MK 200 μg/kg i.p., cisplatin 9.3 mg/kg i.p., versus saline administrated group): significantly decreased | renal dysfunction caused by cisplatin (BUN, serum creatinine, urine protein, HE sections) ([1]; MK 200 μg/kg i.p. daily, cisplatin 9.3 mg/kg i.p. on Day 0): effect of MK for relieving renal dysfunction caused by cisplatin was observed | Ratio of cells at each cell cycle: G1 ([2]; flask coated with MK 100 ng/ml): 75% | Ratio of cells at each cell cycle: G2/M ([2]; flask coated with MK 100 ng/ml): 5% | Ratio of cells at each cell cycle: S ([2]; flask coated with MK 100 ng/ml): 19% | Ratio of cells at each cell cycle: G1 ([2]; flask coated with MK 10 μg/ml): 67% | Ratio of cells at each cell cycle: G2/M ([2]; flask coated with MK 10 μg/ml): 24% | Ratio of cells at each cell cycle: S ([2]; flask coated with MK 10 μg/ml): 9% | change of the ratio of the cells at G1 phase compared with the control group ([2]; in the presence of MK): increased by about tenfold | change of the ratio of the cells at S phase compared with the control group ([2]; in the presence of MK): decreased one eighth to one forth | expression of Bcl-2 ([3]; MK 100 ng/ml, no cisplatin): enhanced the expression of Bcl-2 | concentration showing the Bcl-2 enhancing effect ([3]; data not shown): ≥ 10 ng/mL
